# Measured values reported in publication PMC9352680, “A comprehensive thermodynamic model for RNA binding by the Saccharomyces cerevisiae Pumilio protein PUF4”.
# Changes are numbered by the printed parent chain. Names and notes keep the numbering of the source.
# T1: PUF4 RNA-binding domain (Saccharomyces cerevisiae, UniProt P25339 537-888)
# T1 sequence: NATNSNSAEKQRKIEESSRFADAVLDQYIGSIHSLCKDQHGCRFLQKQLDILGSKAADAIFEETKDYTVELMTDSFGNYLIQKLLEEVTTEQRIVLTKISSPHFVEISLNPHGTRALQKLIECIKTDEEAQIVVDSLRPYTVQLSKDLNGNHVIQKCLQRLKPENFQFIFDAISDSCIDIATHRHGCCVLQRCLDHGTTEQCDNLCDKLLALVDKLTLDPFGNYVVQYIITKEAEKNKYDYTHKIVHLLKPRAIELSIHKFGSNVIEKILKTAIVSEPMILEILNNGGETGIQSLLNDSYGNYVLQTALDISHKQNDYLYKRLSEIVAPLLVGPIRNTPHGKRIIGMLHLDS
# B1: Ia_S4_P5E.1_K5.1_C5.1_H5.1_A5.1_[T5C]_F5.1_T5.1 (ssRNA)
# RNA: UUUGACAACUGAUCGUUCUUUCUUGUACUAUUAUUCUUUCUCGAUCAGUUGUCUUU
# B2: Ia_S4_P5E.1_K5.1_C5.1_H5.1_A5.1_[T6A]_F5.1_T5.1 (ssRNA)
# RNA: B1 RNA with C28U, U29A
# B3: Ia_S4_P5E.1_K5.1_C5.1_H5.1_A5.1_[T6C]_F5.1_T5.1 (ssRNA)
# RNA: B1 RNA with C28U, U29C
# B4: Ia_S4_P5E.1_K5.1_C5.1_H5.1_A5.1_[A7C]_F5.1_T5.1 (ssRNA)
# RNA: B1 RNA with C28U, A30C
# Biological target: T1, PUF4 RNA-binding domain
# Assay: Mg; RNA-MaP; 20 mM Na-HEPES pH 7.4, 30 mM KOAc, 0.75 mM MgCl2, 0.1% Tween-20, 5% glycerol, 0.1 mg/mL BSA, 2 mM DTT; 25 C; 0.0125-409.6 nM protein
# Settings: tags: N-His6-TEV cleaved; C-SNAP kept, Cy3B-labelled; label: tethered on chip by stalled RNA polymerase
row,Binder,Kd
1,UCUCUUUGUAACAUUCUCUU (ssRNA) [Ic_S1_P3E.1_K3.1_C3.1_H3.1_A3.1_[T5A]_[A6C]_F3.1_[T7A]_[A8T]_T3.1],15 nM
2,UCUCUUUGUAACUCUCUCUU (ssRNA) [Ic_S1_P3E.1_K3.1_C3.1_H3.1_A3.1_[T5A]_[A6C]_F3.1_[A8C]_T3.1],373 nM
3,UCUCUUUGUAUCAGUCUCUU (ssRNA) [Ic_S1_P3E.1_K3.1_C3.1_H3.1_A3.1_[A6C]_F3.1_[T7A]_[A8G]_T3.1],483 nM
4,UCUCUUUGUAUGACUCUCUU (ssRNA) [Ic_S1_P3E.1_K3.1_C3.1_H3.1_A3.1_[A6G]_F3.1_[T7A]_[A8C]_T3.1],1070 nM
5,UCUCUUUGUAUGAUUCUCUU (ssRNA) [Ic_S1_P3E.1_K3.1_C3.1_H3.1_A3.1_[A6G]_F3.1_[T7A]_[A8T]_T3.1],42.2 nM
6,UCUCUUUGUAAUGUUCUCUU (ssRNA) [Ic_S1_P3E.1_K3.1_C3.1_H3.1_A3.1_[T5A]_[A6T]_F3.1_[T7G]_[A8T]_T3.1],329 nM
7,UCUCUUUGUAACUUUCUCUU (ssRNA) [Ic_S1_P3E.1_K3.1_C3.1_H3.1_A3.1_[T5A]_[A6C]_F3.1_[A8T]_T3.1],57.1 nM
8,UCUCUUUGUAUUGUUCUCUU (ssRNA) [Ic_S1_P3E.1_K3.1_C3.1_H3.1_A3.1_[A6T]_F3.1_[T7G]_[A8T]_T3.1],38.1 nM
9,UCUCUUUGUACAUAUCUCUU (ssRNA) [Ic_S1_P3E.1_K3.1_C3.1_H3.1_A3.1_[T5C]_F3.1_T3.1],5.88 nM
10,UCUCUUUGUAUGGCUCUCUU (ssRNA) [Ic_S1_P3E.1_K3.1_C3.1_H3.1_A3.1_[A6G]_F3.1_[T7G]_[A8C]_T3.1],1730 nM
11,UCUCUUUGUAAAACUCUCUU (ssRNA) [Ic_S1_P3E.1_K3.1_C3.1_H3.1_A3.1_[T5A]_F3.1_[T7A]_[A8C]_T3.1],369 nM
12,B1,2.21 nM
13,B2,4.42 nM
14,B3,2.73 nM
15,B4,5.51 nM
16,UCUCUUUGUAUAUAUCUCUU (ssRNA) [If_S1_P3E.1_K3.1_C3.1_H3.1_A3.1_F3.1_T3.1],4.91 nM

row,Binder,Kd
1,UCUCUUUGUAAUGGUCUCUU (ssRNA) [Ic_S1_P3E.1_K3.1_C3.1_H3.1_A3.1_[T5A]_[A6T]_F3.1_[T7G]_[A8G]_T3.1],2030 nM
2,UCUCUUUGUAAUCUUCUCUU (ssRNA) [Ic_S1_P3E.1_K3.1_C3.1_H3.1_A3.1_[T5A]_[A6T]_F3.1_[T7C]_[A8T]_T3.1],70.2 nM
3,UCUCUUUGUAACAGUCUCUU (ssRNA) [Ic_S1_P3E.1_K3.1_C3.1_H3.1_A3.1_[T5A]_[A6C]_F3.1_[T7A]_[A8G]_T3.1],491 nM
4,UCUCUUUGUAUCGGUCUCUU (ssRNA) [Ic_S1_P3E.1_K3.1_C3.1_H3.1_A3.1_[A6C]_F3.1_[T7G]_[A8G]_T3.1],1940 nM
5,UCUCUUUGUAAUAGUCUCUU (ssRNA) [Ic_S1_P3E.1_K3.1_C3.1_H3.1_A3.1_[T5A]_[A6T]_F3.1_[T7A]_[A8G]_T3.1],645 nM
6,UCUCUUUGUAACGUUCUCUU (ssRNA) [Ic_S1_P3E.1_K3.1_C3.1_H3.1_A3.1_[T5A]_[A6C]_F3.1_[T7G]_[A8T]_T3.1],534 nM
7,UCUCUUUGUAUGGUUCUCUU (ssRNA) [Ic_S1_P3E.1_K3.1_C3.1_H3.1_A3.1_[A6G]_F3.1_[T7G]_[A8T]_T3.1],509 nM
8,UCUCUUUGUAACGCUCUCUU (ssRNA) [Ic_S1_P3E.1_K3.1_C3.1_H3.1_A3.1_[T5A]_[A6C]_F3.1_[T7G]_[A8C]_T3.1],996 nM
9,UCUCUUUGUAUUACUCUCUU (ssRNA) [Ic_S1_P3E.1_K3.1_C3.1_H3.1_A3.1_[A6T]_F3.1_[T7A]_[A8C]_T3.1],167 nM
10,UCUCUUUGUAUUAGUCUCUU (ssRNA) [Ic_S1_P3E.1_K3.1_C3.1_H3.1_A3.1_[A6T]_F3.1_[T7A]_[A8G]_T3.1],349 nM
11,UCUCUUUGUAUAGUUCUCUU (ssRNA) [Ic_S1_P3E.1_K3.1_C3.1_H3.1_A3.1_F3.1_[T7G]_[A8T]_T3.1],11 nM
12,UCUCUUUGUAUUCGUCUCUU (ssRNA) [Ic_S1_P3E.1_K3.1_C3.1_H3.1_A3.1_[A6T]_F3.1_[T7C]_[A8G]_T3.1],523 nM
13,UCUCUUUGUAACACUCUCUU (ssRNA) [Ic_S1_P3E.1_K3.1_C3.1_H3.1_A3.1_[T5A]_[A6C]_F3.1_[T7A]_[A8C]_T3.1],531 nM
14,UCUCUUUGUAACAAUCUCUU (ssRNA) [Ic_S1_P3E.1_K3.1_C3.1_H3.1_A3.1_[T5A]_[A6C]_F3.1_[T7A]_T3.1],99.3 nM
15,UCUCUUUGUAUCGUUCUCUU (ssRNA) [Ic_S1_P3E.1_K3.1_C3.1_H3.1_A3.1_[A6C]_F3.1_[T7G]_[A8T]_T3.1],326 nM
16,UCUCUUUGUAGCGUCUCUCUU (ssRNA) [Ic_S1_P4E.1_K4.1_C4.1_H4.1_A4.1_[T5G]_[A6C]_[T7G]_F4.1_[A9C]_T4.1],1710 nM
